A word on the IC50: it is the concentration that inhibits the measured activity by half. A low value points to inhibition by little substance.

Holding throughout (conditions): tags: R&D Systems, carrier-free, E. coli produced; chain copies: 2 (homodimer, inferred); label: 5'-32P; three-way helix junction
Series [1] has as its target T1, PDGF-BB (Homo sapiens, UniProt P01127 P01127:82-190). The series is described as follows: cell_activity; inhibition of thymidine incorporation in PAE cells expressing PDGF beta-receptor, 20 ng/ml PDGF-BB. As to the method: (§1) The incorporation of [^3H]thymidine into PAE cells expressing PDGF β-receptor in response to 20 ng/ml of PDGF-BB or 10% fetal calf serum and in the presence of different concentrations of DNA ligands was performed as described (Mori et al., (1991) *J. Biol. Chem.* 266, 21158–21164). After incubation for 24 h at 37° C., ^3H-radioactivity incorporated into DNA was determined using a β-counter.
(§2) We furthermore investigated the ability of the DNA ligands to inhibit the mitogenic effects of PDGF-BB on PAE cells expressing PDGF β-receptors. […] The control ligand T39 had no effect. Moreover, none of the ligands inhibited the stimulatory effects of fetal calf serum on [^3H]thymidine incorporation in these cells, showing that the inhibitory effects are specific for PDGF.

Series [2] deals with T1, PDGF-BB. The experiment in a line: cell_activity; slightly less efficient than 36t; thymidine incorporation. As to the method: as §1, §2
A general note: Dividing cells build labelled thymidine or BrdU into new DNA.

The target of series [3] is T1, PDGF-BB. The series is described as follows: cell_activity; slightly more efficient than 36t; thymidine incorporation. The protocol: as §1, §2

T1 sequence (P01127 82-190, one chain of several): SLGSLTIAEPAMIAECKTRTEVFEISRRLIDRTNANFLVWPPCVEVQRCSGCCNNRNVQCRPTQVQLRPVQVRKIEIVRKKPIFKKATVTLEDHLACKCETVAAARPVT

B1: 36t (ssDNA)
DNA: CACAGGCTACGGCACGTAGAGCATCACCATGATCCTGTGT
modifications: 3'-3' linked inverted T at 3' end
Take B1: the IC50 with PDGF-BB [1] turned out to be 2.5 nM. In other words, the single-digit nanomolar range.

B2: 20t (ssDNA)
DNA: TGGGAGGGCGCGTTCTTCGTGGTTACTTTTAGTCCCGT
modifications: 3'-3' linked inverted T at 3' end
As to B2, the IC50 with PDGF-BB [2] is over 2.5 nM.

B3: 41t (ssDNA)
DNA: TACTCAGGGCACTGCAAGCAATTGTGGTCCCAATGGGCTGAGTAT
modifications: 3'-3' linked inverted T at 3' end
On to B3, for which, in the series with PDGF-BB [3], the IC50 is under 2.5 nM.

For the origin of these results see patent publication US5723594, “High affinity PDGF nucleic acid ligands” (NeXstar Pharmaceuticals, Inc.).
